# Test results reported in the DeepSol protein solubility set.
# Experiment: soluble on expression in E. coli; label from the status in PepcDB or PDB records
row,Sequence,soluble on expression in E. coli
1,MVINGLDILLQNPEVLRHRRVGLIANQTSVSMQLEYSWMLLKRAGVELTRIFSPEHGLFAIEQDQIAVGHQPDIGCEIVSLYGDSEHSLAPARELLDGLDLVLFDIQDVGSRYYTYVNTLALFMKAAEGLDIEIMVLDRPNPLGGSLIEGPQLDPAFHSFVGVMPLPVRHGLTAGEIAHFYRNYKKLDLNLNVIPMQGWSRQMLFPETCLPWVPPSPNMPSFEAAEVYPGMCLFEGLNVSEGRGTTTPFLLSGATFVDPEALAERLASMPLEGVVFRPTWFRPTFHKYAGEAIGGLYLHVTDHARFRPFATGVAMTCALYELYPEQLAFLDGVYEFRDDIPAFDLLAGSSTIRSMILDNRDTTAIIASWEKDEAEFAAIKPNFHLYNN,not soluble
2,CLAEGTRIFDPVTGTTHRIEDVVDGRKPIHVVAAAKDGTLHARPVVSWFDQGTRDVIGLRIAGGAILWATPDHKVLTEYGWRAAGELRKGDRVAQPRRFDGFGDSAPIPARVQALADALDDKFLHDMLAEELRYSVIREVLPTRRARTFDLEVEELHTLVAEGVVVHN,soluble
3,MHVIDLSYFVKIYRSKNKHISVNFLRHLHRAGDLHLSGTTRCIYEDVIMKKCLTLLIATVLSGISLTAYAAQPMSNLDSGQLRPAGTVSATGASNLSDLEDKLAEKAREQGAKGYVINSAGGNDQMFGTATIYK,soluble
4,MGSDKIHHHHHHFEDLKPVIADSTKVTQAHTYKDINKLDIDVKDVNVEFREGKNYSVRYEGAKSSSPTVKKSGNQLQIKGRLSSHSIRFNGMSMYDDYYRNSDRNKMIITLPKDSKLDELNLKLSDSLLSQVNMTGIEADRVKASIHDTKLDLRDANFGNVELSAGDSDISMTNTVLSNGKLDLNDTDVRLDGGSLMQVAMNITEGDVDYNNLSIQGGNLRNNDGDIKMSNTQIQGGYKIDDTDGDILVSRVTVDGYRVQSNDGDVRLFEQTTSNGNVLEKNSNSDNVLDIISNDGDITVN,not soluble
5,MSLEKKVLATVGNTEITSDYIDEIIARYPAQQQAMLASDEGKRQVLEQAIAFELMSEFAKETGLDKTEEFKDQLNKFAKELLAQMVMKKTLSSVTVTDDEAKAFYEEHKENFVELETVTAKHILVASEEEAKKVEEEIASGSITFEDAANKYSSCPSKEQGGNLGSFSKGMMVPEFEEAAFNLELGVVSAPVKTQFGYHLIKVEDKTEAKTKAFEDVKEQVVNMLIQERQQKKYLELIKELREKYGVKLAEGHHHHHH,soluble
6,GLEVTVWNRSAAACEPLVALGAARAEEVGELFGLDVVISMLADDQAIRGVLLDSGALERARPGLIHLSMSTLSLDCVEALDQAHQRQGLAFVAAPVFGRTDVAEAGKLNIVVGGPEEAIEQVKALLEIMGQKTWFFGKDPRGAMAVKISGNFMIASAIESMGESVALVKRLGVEPGRFMELMSSTLFDAPVYRNYGPQIVEQRFTPARFRLVLGLKDVDLALSAGKRHNVPLPLASLLHDVLLEAIAHGDGESDWTALAKVALSRSGQI,not soluble
7,MNERERVLAIKGGDHQAFIDLYNEYWSQVYDFSRLYIATIADAEEIVQDVFVKLWESRHLLKEDENIKGFLFIVTRNIVFNKNKKRVNENLFKTSVLVAYGNEGYYNSTTVEEDYCASQLKIFIDRLINSLPEQQRKCFLLSREESLSYKEIAERLGISQKTVEIHMGKALKFLKDKVKRGWEILLSLLSF,not soluble
8,STGMRPRGAAFAAGPPGDLHLGTAIGFAGAIWRSRSPAMSTLLDIKSSVLRQVQVCPSFRRRTEQDPGSASADPQEPATGAWKPGDGVEFFAHMRLMLKKGEGRQGLPCLEVPLRSGSPAPPEPVDPSLGLRALAPEEVEMLYEEALYTVLYRAGTMGPDQVDDEEALLSYLQQVFGTSLEEHTEAIERVRKAKAPTYALKVSVMRAKNLLAKDPNGFSDPYCMLGILPASDATREPRAQKEQRFGFRKGSKRGGPLPAKCIQVTEVKSSTLNPVWKEHFLFEIEDVSTDQLHLDIWDHDDDVSLVEACRKLNEVIGLKGMGRYFKQIVKSARANGTAGPTEDHTDDFLGCLNIPVREVPVAGVDRWFKLEPRSSASRVQGHCHLVLKLITTQRDTAMSQRGRSGFLSHLLLLSHLLRLEHSAEEPNSSSWRGELSTPAATILCLHGAQSNLSPLQLAVLHWQVSSRHHQTCTLDYSYLLGLLEDMQAHWEEAPSLPQEQEESLADSLSAFSEFGLQLLRQLRDYFPATNSTAVHRLELLLKCLGKLQLFQPSFEICPFESELNMDIAAALKRGNREWYDRILNDKSPREQPGPQRLPGLVVLADAVYDDLQFCYSVYASLFHSILNVDVFTLTFRQLERLVAEEAWVLTEELSPKMTLEVASGLFELYLTLADLQRFWDSIPGRDSRSLALAGIHAPFLPAVKLWFQVLRDQAKWRLQGAVDMDTLEPVDASSRHSSSAATAGLCLSHIQELWVRLAWPDPAQAQGLGTQLGQDVCEATLFYTELLRKKVDTQPGAAGEAVSEALCVVLNNVELVRKAAGQALKGLAWPEGATGPEGVLPRPLLSCTQALDDDLQREAHTVTAHLTSKMVGDIRKYVQHISLSPDSIQNDEAVAPLMKYLDEKLALLNASLVKGNLSRVLEALWELLLQAILQALGANRDVSADFYSRFHFTLEALVSFFHAEGQGLPLESLRDGSYKRLKEELRLHKCSTRECIEQFYLDKLKQRTLEQNRFGRLSVRCHYEAAEQRLAVEVLHAADLLPLDANGLSDPFVIVELGPPHLFPLVRSQRTQVKTRTLHPVYDELFYFSVPAEACRRRAACVLFTVMDHDWLSTNDFAGEAALGLGGVTGVARPQVGGGARAGQPVTLHLCRPRAQVRSALRRLEGRTSKEAQEFVKKLKELEKCMEADP,soluble
9,MATQQPALVLDPTGADHHTEHRTLREGGPATWVDVLGVQAWSVSDPVLLKQLLTSSDVSKDARAHWPAFGEVVGTWPLALWVAVENMFTAYGPNHRKLRRLVAPAFSARRVDAMRPAVEAMVTGLVDRLAELPAGEPVDLRQELAYPLPIAVIGHLMGVPQDRRDGFRALVDGVFDTTLDQAEAQANTARLYEVLDQLIAAKRATPGDDMTSLLIAARDDEGDGDRLSPEELRDTLLLMISAGYETTVNVIDQAVHTLLTRPDQLALVRKGEVTWADVVEETLRHEPAVKHLPLRYAVTDIALPDGRTIARGEPILASYAAANRHPDWHEDADTFDATRTVKEHLAFGHGVHFCLGAPLARMEVTLALESLFGRFPDLRLADPAEELPPVPSLISNGHQRLPVLLHAG,soluble
10,MGSDKIHHHHHHMTATDSSILNQYLVGKEPFYQPQHDEVALFEAAYRKRLPVMVKGPTGCGKSRFVEFMAWRLGKPLVTVACNEDMTAADLVGRWLLDKDGTRWQDGPLTVAARYGAICYLDEIVEARQDTTVVIHPLTDHRRTLPLDKKGELIRAHPDFQLVISYNPGYQSLMKDLKQSTKQRFTGFEFDYPNAELEAGILVQETGVAPSIAAQLVTVAATARRLKGHGLDEGISTRLLVYAAMLMDDGVAPRAACRMALVQPITDDADIRATLEHAIDMTFA,not soluble
11,GEPVEFQPKYRDLMLVVDLSGSMQKEDMNLDGEYIDRLSAVKKVLSDFVAKRKGDRLGVVLFGDHAYLQTPLTADRQTVIQQIKQTVIGLVGQRTAIGDGIGLGTKTFVDSDAPQRVMILLSDGSNTAGVLDPIEAAEIAKK,not soluble
12,GSSGSSGMSSMTQNLREVMKVMFKVPGFDRVLEKVTLVSAAPEKLICEMKVEEQHTNKLGTLHGGLTATLVDSISTMALMCTERGAPGVSVDMNITYMSPAKIGEEIVITAHILKQGKTLAFASVDLTNKTTGKLIAQGRHTKHLGNSGPSSG,soluble
13,MKLIVVTTPTFFVEEDKIITALFEEGLDILHLRKPETPAMYSERLLTLIPEKYHRRIVTHEHFYLKEEFNLMGIHLNARNPSEPHDYAGHVSCSCHSVEEVKNRKHFYDYVFMSPIYDSISKVNYYSTYTAEELREAQKAKIIDSKVMALGGINEDNLLEIKDFGFGGAVVLGDLWNKFDACLDQNYLAVIEHFKKLKKLADLEHHHHHH,soluble
14,SLPKQIDTILINIGQLLTMESSGPRAGKSMQDLHVIEDAVVGIHEQKIVFAGQKGAEAGYEADEIIDCSGRLVTPGLVDPHTHLVFGGSREKEMNLKLQGISYLDILAQGGGILSTVKDTRAASEEELLQKAHFHLQRMLSYGTTTAEVKSGYGLEKETELKQLRVAKKLHESQPVDLVSTFMGAHAIPPEYQNDPDDFLDQMLSLLPEIKEQELASFADIFTETGVFTVSQSRRYLQKAAEAGFGLKIHADEIDPLGGAELAGKLKAVSADHLVGTSDEGIKKLAEAGTIAVLLPGTTFYLGKSTYARARAMIDEGVCVSLATDFNPGSSPTENIQLIMSIAALHLKMTAEEIWHAVTVNAAYAIGKGEEAGQLKAGRSADLVIWQAPNYMYIPYHYGVNHVHQVMKNGTIVVNREGAILG,soluble
15,MGHHHHHHSHMERIVMPANYVHTRTTPFWTKETAPASIWRRHLDAGTRQGVYPRLCVMQGTIRYYGYADETSPEPVETLTIEAGQFGVFPPEKWHRIEALSDDTLFNVDFYVDPKILIEG,soluble
16,MAIIFNPNKKIFTLQTAHTTYQMQVDRLGYLLHLYYGAKSTCDMDYVLTYADRGFSGNPYAAGMNRTYSLDTLPQEYPTLGTGDFRNIALDIKNEQGTESVELLYKSYEIRDGKYALKGLPAVWASDDEAQTLEIVLGDDIAGVEVHLLYGVLEACDVITRSVLIKNTGSGNITIEKAHAACLDMVYGDYDVIRFYGKHAMERNLERTHLGHGTLSFGSRRGTSSHQYNPAVILAQRDTTENAGDCYGMLFVYSGNFSCEAEKDQINQTRLLMGLSDELFSYPLAAGETFTVPEVIMSYSADGFSQLSHQYHTCISEHVCRSRFAHEVRPVLINSWEAAYFDFTGDTIVDLAKEAASLGIDMVVMDDGWFGKRDDDNSSLGDWFVNEKKLGGTLSELIDRVHAQGVKFGIWIEPEMVNEDSNLYREHPDWAIQIPGKLPVRSRNQLILDFSRKEVRDNIFNQICAVFDQGKIDYVKWDMNRSMADVYAGNLAYDYVLGVYDFMERLVTRYPDILLEGCSGGGGRFDAGMLYYSPQIWCSDNTDAINRTRIQYGTSFFYPVSSMGAHVSAVPNHQTGRVTSLKTRGITAMAGTFGYELNPALLSDEEKEEIREQIKTFKKYEMLINEGTYWRLTSPFEDEVAAWMSVSRTKDRALVSVVRLYAEANAAACYVKLKGLESDAVYIEENTGRQYTGAALMNAGIPLPFAVKEYEAYQFSFIRLDEAKKLYDEIKKVCGNLKLNEADTADSASDNRLEHHHHHH,soluble
17,LTFSLNFATSSKDSYGTGWLIDWKGDENKPSNTDPFLIYLATNLHVVDALRNPQDYEPYNKDSNGQDYGNRDITHFFALGKYTD,not soluble
18,MRCGIAGLCARAKKVLGEDPAGGTLLVFRGRMGDRLKILHWDGQDFCLYYKVLERGHFPWPKATEGKVALTPAQMAMLWEGIDWRQPRWTSAPTRM,not soluble
19,FTSPAVKRLLGWKQGDEEEKWAEKAVDALVKKLKKKKGAMEELEKALSCPGQPSNCVTIPRSLDGRLQVSHRKGLPHVIYCRVWRWPDLQSHHELKPLECCEFPFGSKQKEVCINPYHYKRVES,soluble
20,MSLKVTMEFIANQLGITKNTVSLALRNMPGVSEKTRKEILRTAEKYGYIYKKSNSKNSKSNSRTGSICLMLSNDTKNSVGFFSFIQYGVESEGKRNGLNTILYCFDDNKEFQPPVCIRDGIVSGIITLGRISRKTVSSIISLNLPLVIVDDFFDDIKASYVLTDNLSGGYTATEYLIKSGHRSIGFFGDIFASPSFFDRYMGYLKAHVQYNLPVNSSFSIIDKNMAVLLHEGVDKVVDELKKIPQLPTAMFCCNDVEAIALYKAFSVMGISVPDDISIIGFDDIESSTSVSPELTTMHINKEAMGERAVKKLIEKMNGQESMDEKIVLPVTLIERQSVKREGHHHHHH,soluble
